Measurements as given in the supplement of paper PMC9112550, “Optimization of the antimicrobial peptide Bac7 by deep mutational scanning” (BMC Biology, 2022).

system: Escherichia coli TOP10; test: shrunken log2 fold change of peptide-encoding DNA abundance (4.5 h post-induction vs induction); higher = less antimicrobial activity (less host growth inhibition); conditions: time post-induction: 4.5 h; library: site-saturation at positions 5, 18, 19, 20
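Also: peptides expressed intracellularly from a pBAD plasmid library in pooled LB shake-flask culture, induced with 0.3% L-arabinose, DNA abundance read by NGS, three biological replicates, DESeq2 with apeglm shrinkage.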

| Sequence | shrunken log2 fold change |
| --- | --- |
| RRIRARPPRLPRPRPRPSCTPRP | 0.44 |
| RRIRKRPPRLPRPRPRPAIVPRP | 0.0885 |
| RRIRRRPPRLPRPRPRPSRWPRP | 0.08 |
| RRIRPRPPRLPRPRPRPMCPPRP | -0.267 |
| RRIRWRPPRLPRPRPRPGPRPRP | 0.514 |
| RRIRWRPPRLPRPRPRPKNWPRP | 0.188 |
| RRIRRRPPRLPRPRPRPFRQPRP | -0.0196 |
| RRIRVRPPRLPRPRPRPVFGPRP | -0.0383 |
| RRIRFRPPRLPRPRPRPFCWPRP | 0.4 |
| RRIRPRPPRLPRPRPRPWYIPRP | -0.472 |
| RRIRKRPPRLPRPRPRPLEGPRP | 0.162 |
| RRIRMRPPRLPRPRPRPYYGPRP | 0.0528 |
| RRIRKRPPRLPRPRPRPSMIPRP | -0.0957 |
| RRIRARPPRLPRPRPRPFGHPRP | 0.132 |
| RRIRCRPPRLPRPRPRPQYWPRP | -0.312 |
| RRIRTRPPRLPRPRPRPAEIPRP | 0.083 |
| RRIRQRPPRLPRPRPRPGAVPRP | 0.274 |
| RRIRERPPRLPRPRPRPAEGPRP | -0.179 |
| RRIRTRPPRLPRPRPRPVHGPRP | -0.0733 |
| RRIRNRPPRLPRPRPRPHSMPRP | -0.027 |
| RRIRARPPRLPRPRPRPIMPPRP | 0.167 |
| RRIRKRPPRLPRPRPRPQNHPRP | 2.37 |

| Sequence | shrunken log2 fold change |
| --- | --- |
| RRIRPRPPRLPRPRPRPRLWPRP | 0.917 |
| RRIRMRPPRLPRPRPRPRKRPRP | 3 |
| RRIRDRPPRLPRPRPRPARDPRP | 0.724 |
| RRIRMRPPRLPRPRPRPAHTPRP | 0.709 |
| RRIRPRPPRLPRPRPRPFSMPRP | -0.161 |
| RRIRGRPPRLPRPRPRPMMYPRP | 0.163 |
| RRIRVRPPRLPRPRPRPLRRPRP | 0.644 |
| RRIRCRPPRLPRPRPRPRECPRP | -0.146 |
| RRIRVRPPRLPRPRPRPQDPPRP | 0.0381 |
| RRIRPRPPRLPRPRPRPRNLPRP | 0.067 |
| RRIRCRPPRLPRPRPRPWMSPRP | -0.824 |
| RRIRMRPPRLPRPRPRPTNQPRP | 0.279 |
| RRIRMRPPRLPRPRPRPWCDPRP | 0.274 |
| RRIRNRPPRLPRPRPRPINPPRP | -0.796 |
| RRIRQRPPRLPRPRPRPCCWPRP | 0.0955 |
| RRIRCRPPRLPRPRPRPQADPRP | 0.0688 |
| RRIRNRPPRLPRPRPRPVFTPRP | -0.349 |
| RRIRSRPPRLPRPRPRPQCRPRP | -0.0553 |
| RRIRYRPPRLPRPRPRPHMRPRP | -0.02 |
| RRIRIRPPRLPRPRPRPWSWPRP | -0.0152 |
| RRIRKRPPRLPRPRPRPMRPPRP | 1.22 |
| RRIRLRPPRLPRPRPRPCWPPRP | 0.0177 |

| Sequence | shrunken log2 fold change |
| --- | --- |
| RRIRKRPPRLPRPRPRPKAEPRP | 0.669 |
| RRIRNRPPRLPRPRPRPPPIPRP | 0.801 |
| RRIRIRPPRLPRPRPRPWGSPRP | -0.488 |
| RRIRYRPPRLPRPRPRPWSLPRP | 0.0143 |
| RRIRPRPPRLPRPRPRPPSEPRP | 0.447 |
| RRIRNRPPRLPRPRPRPPIQPRP | 0.0569 |
| RRIRIRPPRLPRPRPRPGSVPRP | -0.258 |
| RRIRARPPRLPRPRPRPHHMPRP | -0.715 |
| RRIRRRPPRLPRPRPRPGQLPRP | 0.0163 |
| RRIRLRPPRLPRPRPRPGGTPRP | -0.0425 |
| RRIRTRPPRLPRPRPRPMIMPRP | -0.437 |
| RRIRQRPPRLPRPRPRPTIYPRP | -0.552 |
| RRIRKRPPRLPRPRPRPSHFPRP | 0.355 |
| RRIRLRPPRLPRPRPRPAFMPRP | -0.112 |
| RRIRKRPPRLPRPRPRPPKFPRP | 0.514 |
| RRIRIRPPRLPRPRPRPFECPRP | -0.0837 |
| RRIRERPPRLPRPRPRPLRMPRP | 0.167 |
| RRIRIRPPRLPRPRPRPVTLPRP | -0.093 |
| RRIRMRPPRLPRPRPRPLSNPRP | -0.0789 |
| RRIRDRPPRLPRPRPRPSMHPRP | -0.176 |
| RRIRARPPRLPRPRPRPRPFPRP | 0.562 |
| RRIRKRPPRLPRPRPRPKKYPRP | -0.149 |

| Sequence | shrunken log2 fold change |
| --- | --- |
| RRIRSRPPRLPRPRPRPMQDPRP | 0.125 |
| RRIRARPPRLPRPRPRPMMKPRP | -0.146 |
| RRIRDRPPRLPRPRPRPTKCPRP | -0.0929 |
| RRIRYRPPRLPRPRPRPFQDPRP | -0.139 |
| RRIRLRPPRLPRPRPRPAYEPRP | 2.25 |
| RRIRDRPPRLPRPRPRPHEEPRP | 0.175 |
| RRIRMRPPRLPRPRPRPWNSPRP | -0.00149 |
| RRIRIRPPRLPRPRPRPEQWPRP | -0.0237 |
| RRIRTRPPRLPRPRPRPDGYPRP | -0.0637 |
| RRIRCRPPRLPRPRPRPSMTPRP | -0.178 |
| RRIRFRPPRLPRPRPRPLTNPRP | 0.0389 |
| RRIRKRPPRLPRPRPRPFRDPRP | 0.222 |
| RRIRIRPPRLPRPRPRPRTWPRP | -0.0123 |
| RRIRTRPPRLPRPRPRPKINPRP | -0.325 |
| RRIRGRPPRLPRPRPRPISEPRP | 0.0792 |
| RRIRRRPPRLPRPRPRPQVVPRP | 0.0705 |
| RRIRMRPPRLPRPRPRPPTMPRP | 0.271 |
| RRIRCRPPRLPRPRPRPEVEPRP | 0.254 |
| RRIRVRPPRLPRPRPRPRFGPRP | 0.249 |
| RRIRARPPRLPRPRPRPFEHPRP | 0.172 |
| RRIRHRPPRLPRPRPRPMCTPRP | -0.696 |
| RRIRCRPPRLPRPRPRPHARPRP | 0.204 |

| Sequence | shrunken log2 fold change |
| --- | --- |
| RRIRLRPPRLPRPRPRPRWTPRP | 0.404 |
| RRIRHRPPRLPRPRPRPFISPRP | -0.387 |
| RRIRQRPPRLPRPRPRPPKGPRP | 0.021 |
| RRIRRRPPRLPRPRPRPGCCPRP | 0.589 |
| RRIRQRPPRLPRPRPRPAYYPRP | -0.514 |
| RRIRIRPPRLPRPRPRPSWCPRP | -0.532 |
| RRIRFRPPRLPRPRPRPMCWPRP | -0.189 |
| RRIRYRPPRLPRPRPRPLMCPRP | -0.632 |
| RRIRSRPPRLPRPRPRPHNGPRP | 0.00483 |
| RRIRVRPPRLPRPRPRPIWDPRP | 0.0206 |
| RRIRIRPPRLPRPRPRPHTHPRP | -0.92 |
| RRIRPRPPRLPRPRPRPSKDPRP | -0.451 |
| RRIRERPPRLPRPRPRPLDAPRP | -0.17 |
| RRIRARPPRLPRPRPRPQAFPRP | -0.323 |
| RRIRMRPPRLPRPRPRPAMYPRP | 2.95 |
| RRIRGRPPRLPRPRPRPDGYPRP | 0.222 |
| RRIRERPPRLPRPRPRPVIMPRP | -0.458 |
| RRIRNRPPRLPRPRPRPNTTPRP | -0.209 |
| RRIRFRPPRLPRPRPRPWTAPRP | -0.283 |
| RRIRDRPPRLPRPRPRPWIDPRP | 0.151 |
| RRIRLRPPRLPRPRPRPRWRPRP | 0.463 |
